In article doi:10.1101/2021.03.04.433768 (bioRxiv, 2021):

Target: HexaPro, a prefusion construct of the SARS-CoV-2 spike (SARS-CoV-2, Wuhan-Hu-1 reference spike …, UniProt P0DTC2, stabilised)
Assay: negative-stain EM

B1: Nb56 (llama nanobody, monomer) (VHH)
VHH: QVQLQESGGGLVQAGDSLRLSCVASERTFRRYGMGWFRQAPGKEREFVAAVDRSHTKTGYADFVKGRFTISTNYENMVYLQMNSLKPEDTAVYYCAAPSYEKGSDPTSWNTDRGYDYWGQGTQVTVSS
binding result: binds
